The record followed here is patent US20070293451A1 (UNIVERSITY OF PITTSBURGH, published 2007).

One may read the Kd as a measure of binding affinity in units of concentration.

Test [1] deals with T1, full length Sse1p (yeast Hsp110) (Saccharomyces cerevisiae (yeast), UniProt P32589 2-693).
T1 construct: Purified as in Goeckeler et al., 2002; also called Sselp
T1 sequence: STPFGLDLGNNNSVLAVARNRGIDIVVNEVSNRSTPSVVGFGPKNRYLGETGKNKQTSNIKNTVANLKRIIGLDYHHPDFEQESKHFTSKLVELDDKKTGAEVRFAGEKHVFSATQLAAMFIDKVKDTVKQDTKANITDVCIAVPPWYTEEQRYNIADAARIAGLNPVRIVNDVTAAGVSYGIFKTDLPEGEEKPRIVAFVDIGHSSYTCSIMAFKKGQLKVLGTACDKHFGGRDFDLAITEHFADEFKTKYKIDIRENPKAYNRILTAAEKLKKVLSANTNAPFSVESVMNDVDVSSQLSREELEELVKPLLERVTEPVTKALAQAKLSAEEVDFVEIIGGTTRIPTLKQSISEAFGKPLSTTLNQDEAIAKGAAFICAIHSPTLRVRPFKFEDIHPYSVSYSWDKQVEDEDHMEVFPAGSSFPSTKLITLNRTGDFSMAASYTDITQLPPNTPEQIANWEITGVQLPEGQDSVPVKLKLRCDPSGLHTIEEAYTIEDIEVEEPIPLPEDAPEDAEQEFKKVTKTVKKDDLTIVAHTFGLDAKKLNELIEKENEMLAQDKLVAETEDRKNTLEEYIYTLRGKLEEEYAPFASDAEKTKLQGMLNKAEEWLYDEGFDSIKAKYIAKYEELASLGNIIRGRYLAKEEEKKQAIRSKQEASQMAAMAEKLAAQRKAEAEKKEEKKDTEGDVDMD
The test is described as follows: fluorescence anisotropy competition against the labeled peptide.

Test [2] concerns the target T1, full length Sse1p (yeast Hsp110). As to the kind of experiment: fluorescence anisotropy. On the procedure: (§1) In this assay, full length Sse1p and the peptide binding domain of Sse1p were bound to a 6-carboxyfluorescein-aminohexanoic acid-N-terminal-linked-polypeptide having the sequence N-[…]-C (SEQ ID NO: 1), which was derived from firefly luciferase. Binding was assessed by fluorescence anisotropy. […] Unlabeled peptide competes for binding (data not shown).
(Polarisation of emitted light reports the rotation of a fluorescent probe.)

For test [3], the target named is T2, peptide binding domain of Sse1p (Saccharomyces cerevisiae (yeast), UniProt P32589 375-693, limits assumed).
T2 sequence: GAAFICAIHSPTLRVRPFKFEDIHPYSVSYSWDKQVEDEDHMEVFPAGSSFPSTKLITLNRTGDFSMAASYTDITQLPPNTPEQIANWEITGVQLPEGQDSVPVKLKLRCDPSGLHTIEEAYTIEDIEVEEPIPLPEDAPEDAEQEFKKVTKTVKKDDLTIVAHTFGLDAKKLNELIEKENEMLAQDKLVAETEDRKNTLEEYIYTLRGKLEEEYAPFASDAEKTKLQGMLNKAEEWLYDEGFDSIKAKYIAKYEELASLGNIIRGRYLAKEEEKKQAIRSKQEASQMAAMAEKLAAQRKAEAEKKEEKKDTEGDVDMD
The test is described as follows: fluorescence anisotropy; reference is full-length Sse1p. On the procedure:
as §1

Ends that are not written are not given here. * marks the point of attachment. 6FAM = O=C1OC2(c3ccc(O)cc3Oc3cc(O)ccc32)c2cc(C(=O)*)ccc21; Ahx = NCCCCCC(=O)O

For the molecule LICGFRVVLMYRF [unlabeled peptide LICGFRVVLMYRF], the binding result in test [1] is “binds”.

B1: 6-carboxyfluorescein-aminohexanoic acid-N-terminal-linked polypeptide LICGFRVVLMYRF (derived from firefly luciferase) (peptide)
peptide: {6FAM-Ahx}-LICGFRVVLMYRF
notes: also called fluorescently labeled peptide
For the molecule B1, the Kd in test [2] was 2 to 3 nM. In addition, the “fold lower affinity than full-length Sse1p” value in test [3] was roughly 100 fold.
